Reference: patent US20130012451A1 (RESEARCH FOUNDATION OF STATE UNIVERSITY OF NEW YORK, published 2013)

B1: MMP-9/IVS4 chimera (MMP-9 with the outermost β-strand of blade IV of the PEX domain, NQVDQVGY, replaced by MMP-2 KSVKFGS) (enzyme)
chain: APRQRQSTLVLFPGDLRTNLTDRQLAEEYLYRYGYTRVAEMRGESKSLGPALLLLQKQLSLPETGELDSATLKAMRTPRCGVPDLGRFQTFEGDLKWHHHNITYWIQNYSEDLPRAVIDDAFARAFALWSAVTPLTFTRVYSRDADIVIQFGVAEHGDGYPFDGKDGLLAHAFPPGPGIQGDAHFDDDELWSLGKGVVVPTRFGNADGAACHFPFIFEGRSYSACTTDGRSDGLPWCSTTANYDTDDRFGFCPSERLYTQDGNADGKPCQFPFIFQGQSYSACTTDGRSDGYRWCATTANYDRDKLFGFCPTRADSTVMGGNSAGELCVFPFTFLGKEYSTCTSEGRGDGRLWCATTSNFDSDKKWGFCPDQGYSLFLVAAHEFGHALGLDHSSVPEALMYPMYRFTEGPPLHKDDVNGIRHLYGPRPEPEPRPPTTTTPQPTAPPTVCPTGPPTVHPSERPTAGPTGPPSAGPTGPPTAGPSTATTVPLSPVDDACNVNIFDAIAEIGNQLYLFKDGKYWRFSEGRGSRPQGPFLIADKWPALPRKLDSVFEERLSKKLFFFSGRQVWVYTGASVLGPRRLDKLGLGADVAQVTGALRSGRGKMLLFSGRRLWRFDVKAQMVDPRSASEVDRMFPGVPLDTHDVFQYREKAYFCQDRFYWRVSSRSELKSVKFGSVTYDILQCPED
notes: also called MMP-9/Blade IV; MMP-9/blade IV mutant
B2: IVS4 peptide (NQVDQVGY) (peptide)
peptide: NQVDQVGY
B3: IS4 peptide (SRPQGPFL) (peptide)
peptide: SRPQGPFL

How the values were obtained:
[1] = target: T1, MMP-9 with a carboxy-terminal Myc tag (MMP-9/Myc) (Homo sapiens (Human), UniProt P14780 20-707); test: co-immunoprecipitation, co-transfected COS-1 cells
T1 construct: Expressed from cDNA in COS-1 cells and secreted as proMMP-9; also called Myc-tagged MMP-9; proMMP-9/Myc; not shown: C-terminal Myc tag from the pcDNA3.1-myc vector
Text: FIG. 4. Blade IV of the PEX domain of proMMP-9 is required for homodimerization and cell migration. (A) Ribbon diagram of MMP-9 PEX domain (PDB:1ITV). Each outermost β-strand from the four blades was swapped with the corresponding MMP-2 PEX domain sequences (upper panel). Lower panel: Schematic diagram of substitution mutations at the outermost 3-strands of four blade of MMP-9 by corresponding MMP-2 sequences. […] The conditioned medium was also examined by gelatin zymography (lower panel). […] (P-values reflect comparison with MMP-9 transfected cells: *P<0.05). (D) A peptide mimicking MMP-9 IVS4 abrogates MMP-9 dimerization examined by co-immunoprecipitation (upper panel). Total cell lysate (20 μg) was also examined by an immunoblotting assay using anti-HA antibody (lower panel). (E) Dose dependent inhibition of MMP-9-mediated cell migration by IVS4 peptides. No effect was found using scrambled peptides. COS-1 cells transfected with an empty vector or MMP-9 cDNAs were examined by a transwell chamber migration assay for 6 hours in the presence of DMSO control, specific and scramble peptides at different concentration. Each data point was performed in triplicate and the experiments was repeated three times (*P<0.05).
Each blade contains four anti-parallel […]-strands with peptide loops linking one strand to the next as illustrated in FIG. 1B. […]

[2] = target: Matrix Metalloproteinase-9 (MMP-9), wild type (Homo sapiens (Human), UniProt P14780 20-707); test: cell-based or functional assay

Row | binding result [1] | IC50 (potency; inhibition of MMP-9-induced cell migration, transwell assay) [2] | Binder
1 | no binding |  | B1
2 |  | 50 µM | B2
3 |  | 12 µM | B3
